What all share (test): ITC
The target of one experiment is T1, human RhoGDI (human, UniProt P52565 1-204).
T1 sequence (looked up): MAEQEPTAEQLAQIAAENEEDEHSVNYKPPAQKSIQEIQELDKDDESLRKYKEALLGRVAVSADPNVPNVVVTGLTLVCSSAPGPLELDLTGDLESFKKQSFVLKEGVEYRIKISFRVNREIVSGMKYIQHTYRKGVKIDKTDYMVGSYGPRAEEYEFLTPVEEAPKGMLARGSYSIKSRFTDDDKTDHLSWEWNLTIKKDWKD

In experiment [1] the target is T2, ezrin FERM domain (residues 1-297) (human, UniProt P15311 1-297).
Experiment [2] has as its target T2, ezrin FERM domain (residues 1-297). This is another data set of the same source.

Usually stoichiometry N stands for the number of molecules, sites or subunits per partner or assembly.

T2 sequence (P15311 1-297): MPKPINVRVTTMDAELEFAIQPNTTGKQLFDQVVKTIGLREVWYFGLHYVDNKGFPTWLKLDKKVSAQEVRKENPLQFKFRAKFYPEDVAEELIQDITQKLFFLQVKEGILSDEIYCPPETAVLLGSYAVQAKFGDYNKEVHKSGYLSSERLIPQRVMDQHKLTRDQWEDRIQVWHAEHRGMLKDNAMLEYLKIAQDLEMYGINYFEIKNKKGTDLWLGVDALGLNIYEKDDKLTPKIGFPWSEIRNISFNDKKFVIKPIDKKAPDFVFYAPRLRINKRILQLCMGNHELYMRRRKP

B1: human Cdc42C188S, GDP-bound (natural protein)
chain: not shown
With B1, in the experiment with human RhoGDI, the Ka came to 55700 ± 940 M⁻¹, the dH was -13.29 ± 0.08 kcal/mol and the “stoichiometry N” value was 0.853 ± 0.0003.

B2: IQGAP2 Repeats (IQGAP2 residues 211-591) (domain or fragment, human, UniProt Q13576 211-591, looked up)
chain: EAALHAAVIAINEAVEKGIAEQTVVTLRNPNAVLTLVDDNLAPEYQKELWDAKKKKEENARLKNSCISEEERDAYEELLTQAEIQGNINKVNRQAAVDHINAVIPEGDPENTLLALKKPEAQLPAVYPFAAAMYQNELFNLQKQNTMNYLAHEELLIAVEMLSAVALLNQALESNDLVSVQNQLRSPAIGLNNLDKAYVERYANTLLSVKLEVLSQGQDNLSWNEIQNCIDMVNAQIQEENDRVVAVGYINEAIDEGNPLRTLETLLLPTANISDVDPAHAQHYQDVLYHAKSQKLGDSESVSKVLWLDEIQQAVDDANVDKDRAKQWVTLVVDVNQCLEGKKSSDILSVLKSSTSNANDIIPECADKYYDALVKAKELKS
Consider B2, for which, in experiment [1], the dH was -3.98 ± 0.39 kcal/mol and the “stoichiometry N” value is 1.33 ± 0.0688.

B3: ezrin C-terminal fragment (residues 477-586) (domain or fragment, human, UniProt P15311 477-586, looked up)
chain: VYEPVSYHVQESLQDEGAEPTGYSAELSSEGIRDDRNEEKRITEAEKNERVQRQLLTLSSELSQARDENKRTHNDIIHNENMRQGRDKYKTLRQIRQGNTKQRIDEFEAL
B3: the Ka in experiment [2] is 1.13e+06 M⁻¹.

B4: IQGAP1 Repeats (IQGAP1 residues 156-672), tag removed (domain or fragment, human, UniProt P46940 156-672, looked up)
chain: SLYLFKLGLAPQIQDLYGKVDFTEEEINNMKTELEKYGIQMPAFSKIGGILANELSVDEAALHAAVIAINEAIDRRIPADTFAALKNPNAMLVNLEEPLASTYQDILYQAKQDKMTNAKNRTENSERERDVYEELLTQAEIQGNINKVNTFSALANIDLALEQGDALALFRALQSPALGLRGLQQQNSDWYLKQLLSDKQQKRQSGQTDPLQKEELQSGVDAANSAAQQYQRRLAAVALINAAIQKGVAEKTVLELMNPEAQLPQVYPFAADLYQKELATLQRQSPEHNLTHPELSVAVEMLSSVALINRALESGDVNTVWKQLSSSVTGLTNIEEENCQRYLDELMKLKAQAHAENNEFITWNDIQACVDHVNLVVQEEHERILAIGLINEALDEGDAQKTLQALQIPAAKLEGVLAEVAQHYQDTLIRAKREKAQEIQDESAVLWLDEIQGGIWQSNKDTQEAQKFALGIFAINEAVESGDVGKTLSALRSPDVGLYGVIPECGETYHSDLAEAK
With B4, in experiment [1], the dH was -49.1 ± 15.6 kcal/mol and the “stoichiometry N” value came out at 0.274 ± 0.0243.

(Values after publication PMC3975686 (Journal of proteome research, 2013).)
